Test results as given in patent publication US20120172295A1 (INDIANA UNIVERSITY RESEARCH AND TECHNOLOGY, published 2012).
Positions of bridges follow the written chain, without caps; N, C: chain ends. Non-standard residues stand in square brackets, D forms with d. No end group written: not given here. *: point of attachment. Isobutyryl(2-imidazol-4-yl) = CC(C)(C(=O)*)c1c[nH]cn1; Palmitoyl = CCCCCCCCCCCCCCCC(=O)*; Myristoyl = CCCCCCCCCCCCCC(=O)*; DMIA = not defined here; PEG = not defined here; Aib = CC(C)(N)C(=O)O

Key:
Assay in all cases: cell-based or functional assay
glucagon receptor [1] = target: T1, glucagon receptor (UniProt P47871 26-477, limits assumed)
T1 sequence (P47871 26-477 limits assumed): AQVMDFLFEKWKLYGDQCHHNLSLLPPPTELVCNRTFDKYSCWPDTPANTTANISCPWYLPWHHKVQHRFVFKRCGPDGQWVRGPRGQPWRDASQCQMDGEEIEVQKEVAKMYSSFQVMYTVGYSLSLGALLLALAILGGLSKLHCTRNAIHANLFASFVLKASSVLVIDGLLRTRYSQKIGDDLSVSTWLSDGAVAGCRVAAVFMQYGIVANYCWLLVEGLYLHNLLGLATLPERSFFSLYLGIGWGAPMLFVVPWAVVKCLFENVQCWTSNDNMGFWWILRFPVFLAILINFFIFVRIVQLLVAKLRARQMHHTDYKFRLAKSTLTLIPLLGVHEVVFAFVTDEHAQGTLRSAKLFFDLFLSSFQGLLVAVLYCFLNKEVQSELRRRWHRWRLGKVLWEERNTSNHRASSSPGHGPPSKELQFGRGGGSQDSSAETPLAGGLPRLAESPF

GLP-1 receptor [2] = target: T2, GLP-1 receptor (UniProt P43220 24-463, limits assumed)
glucagon receptor [3] = target: T1, glucagon receptor; remark: listed apart in the source
GLP-1 receptor [4] = target: T2, GLP-1 receptor; remark: listed apart in the source

Row | Binder | % Potency Relative to Native (glucagon receptor [1]) | % Potency Relative to Native (GLP-1 receptor [2]) | % Activity of Glucagon (glucagon receptor [3]) | EC50 (glucagon receptor [3]) | % Activity of GLP-1 (GLP-1 receptor [4]) | EC50 (GLP-1 receptor [4])
1 | [Isobutyryl(2-imidazol-4-yl)]SQGTFTSDYSKYLDEQAAKEFICWLMNT-NH2 (lactam 16-20; SMILES CC[C@H](C)[C@H](NC(=O)[C@H](Cc1ccccc1)NC(=O)[C@H](CCC(=O)O)NC(=O)[C@@H]1CCCCNC(=O)CC[C@H](NC(=O)[C@H](CC(=O)O)NC(=O)[C@H](CC(C)C)NC(=O)[C@H](Cc2ccc(O)cc2)NC(=O)[C@H](CCCCN)NC(=O)[C@H](CO)NC(=O)[C@H](Cc2ccc(O)cc2)NC(=O)[C@H](CC(=O)O)NC(=O)[C@H](CO)NC(=O)[C@@H](NC(=O)[C@H](Cc2ccccc2)NC(=O)[C@@H](NC(=O)CNC(=O)[C@H](CCC(N)=O)NC(=O)[C@H](CO)NC(=O)C(C)(C)c2c[nH]cn2)[C@@H](C)O)[C@@H](C)O)C(=O)N[C@@H](CCC(N)=O)C(=O)N[C@@H](C)C(=O)N[C@@H](C)C(=O)N1)C(=O)N[C@@H](CS)C(=O)N[C@@H](Cc1c[nH]c2ccccc12)C(=O)N[C@@H](CC(C)C)C(=O)N[C@@H](CCSC)C(=O)N[C@@H](CC(N)=O)C(=O)N[C@H](C(N)=O)[C@@H](C)O) [Chimera DMIA1, Cys24 Lactam (SEQ ID NO: 505), parent w/o PEG] | 161% | 82.5% |  |  |  | 
2 | H[Aib]QGTFTSDYSKYLDERRAKDFVC(PEG)WLMNT-NH2 (lactam 16-20; reading uncertain) [E16, K20 AIB2, Cys24 Lactam (SEQ ID NO: 517), parent w/PEG] | 15.8% | 31% |  |  |  | 
3 | [Isobutyryl(2-imidazol-4-yl)]SQGTFTSDYSKYLDEQAAKEFIAWLMNC(PEG)-NH2 (reading uncertain) [Chimera DMIA1, Cys29 (SEQ ID NO: 520), parent w/PEG] | 5.3% | 27.3% |  |  |  | 
4 | H[Aib]QGTFTSDK(Myristoyl)SKYLD[Aib]RRAQDFVQWLMNT-NH2 (N-terminus assumed; SMILES CCCCCCCCCCCCCC(=O)NCCCC[C@H](NC(=O)[C@H](CC(=O)O)NC(=O)[C@H](CO)NC(=O)[C@@H](NC(=O)[C@H](Cc1ccccc1)NC(=O)[C@@H](NC(=O)CNC(=O)[C@H](CCC(N)=O)NC(=O)C(C)(C)NC(=O)[C@@H](N)Cc1c[nH]cn1)[C@@H](C)O)[C@@H](C)O)C(=O)N[C@@H](CO)C(=O)N[C@@H](CCCCN)C(=O)N[C@@H](Cc1ccc(O)cc1)C(=O)N[C@@H](CC(C)C)C(=O)N[C@@H](CC(=O)O)C(=O)NC(C)(C)C(=O)N[C@@H](CCCNC(=N)N)C(=O)N[C@@H](CCCNC(=N)N)C(=O)N[C@@H](C)C(=O)N[C@@H](CCC(N)=O)C(=O)N[C@@H](CC(=O)O)C(=O)N[C@@H](Cc1ccccc1)C(=O)N[C@H](C(=O)N[C@@H](CCC(N)=O)C(=O)N[C@@H](Cc1c[nH]c2ccccc12)C(=O)N[C@@H](CC(C)C)C(=O)N[C@@H](CCSC)C(=O)N[C@@H](CC(N)=O)C(=O)N[C@H](C(N)=O)[C@@H](C)O)C(C)C) [AIB2, AIB16, K10(C14) Gluc Amide] |  |  | 77.3% | 0.044 nM | 33.3% | 0.024 nM
5 | H[Aib]QGTFTSDYSKYLDERRAKDFVCWLMNT-NH2 (lactam 16-20; N-terminus assumed; SMILES CSCC[C@H](NC(=O)[C@H](CC(C)C)NC(=O)[C@H](Cc1c[nH]c2ccccc12)NC(=O)[C@H](CS)NC(=O)[C@@H](NC(=O)[C@H](Cc1ccccc1)NC(=O)[C@H](CC(=O)O)NC(=O)[C@@H]1CCCCNC(=O)CC[C@H](NC(=O)[C@H](CC(=O)O)NC(=O)[C@H](CC(C)C)NC(=O)[C@H](Cc2ccc(O)cc2)NC(=O)[C@H](CCCCN)NC(=O)[C@H](CO)NC(=O)[C@H](Cc2ccc(O)cc2)NC(=O)[C@H](CC(=O)O)NC(=O)[C@H](CO)NC(=O)[C@@H](NC(=O)[C@H](Cc2ccccc2)NC(=O)[C@@H](NC(=O)CNC(=O)[C@H](CCC(N)=O)NC(=O)C(C)(C)NC(=O)[C@@H](N)Cc2c[nH]cn2)[C@@H](C)O)[C@@H](C)O)C(=O)N[C@@H](CCCNC(=N)N)C(=O)N[C@@H](CCCNC(=N)N)C(=O)N[C@@H](C)C(=O)N1)C(C)C)C(=O)N[C@@H](CC(N)=O)C(=O)N[C@H](C(N)=O)[C@@H](C)O) [E16, K20 AIB2, Cys24 Lactam (SEQ ID NO: 517), parent w/o PEG] | 108% | 96.9% |  |  |  | 
6 | XSQGTFTSDKSKYLDERRAKDFVQWLMNT (DMIA at 1; Lys 10-C16 acyl; [E16/K20]; C-terminal amide) [DMIA1, K10(C16), [E16/K20]-Gluc Amide] |  |  | 392% |  | 100% | 
7 | H[Aib]QGTFTSDK(Palmitoyl)SKYLD[Aib]RRAQDFVQWLMNT-NH2 [AIB2, AIB16, K10(C16) Gluc Amide (SEQ ID NO: 611)] |  |  | 170% | 0.02 nM | 72.3% | 
8 | H[Aib]QGTFTSDYSKYLDERAAKDFVC(PEG)WLMNT-NH2 (reading uncertain) [E16, K20AIB2, A18 Cys24 (SEQ ID NO: 492), parent w/PEG] | 1.1% | 73.5% |  |  |  | 
9 | [Isobutyryl(2-imidazol-4-yl)]SQGTFTSDYSKYLDEQAAKEFIC(PEG)WLMNT-NH2 (reading uncertain) [Chimera DMIA1, Cys24 (SEQ ID NO: 519), parent w/PEG] | 6.9% | 19.3% |  |  |  | 
10 | [DMIA]SQGTFTSDYSKYLDERRAKDFVCWLMNGGPSSGAPPPS-NH2 (lactam 16-20; reading uncertain) [E16, K20 DMIA1, Gly29,30 Cys24 Cex Lactam (SEQ ID NO: 513), parent w/o PEG] | 116% | 78.3% |  |  |  | 
11 | H[Aib]QGTFTSDYSKYLDEQAAKEFIC(PEG)WLMNGGPSSGAPPPS-NH2 (lactam 16-20; reading uncertain) [Chimera AIB2, Gly29,30 Cys24 Cex Lactam (SEQ ID NO: 491), parent w/PEG] | 1.4% | 96.4% |  |  |  | 
12 | H[Aib]QGTFTSDYSKYLDEQAAKEFICWLMNGGPSSGAPPPS-NH2 (lactam 16-20; N-terminus assumed; SMILES CC[C@H](C)[C@H](NC(=O)[C@H](Cc1ccccc1)NC(=O)[C@H](CCC(=O)O)NC(=O)[C@@H]1CCCCNC(=O)CC[C@H](NC(=O)[C@H](CC(=O)O)NC(=O)[C@H](CC(C)C)NC(=O)[C@H](Cc2ccc(O)cc2)NC(=O)[C@H](CCCCN)NC(=O)[C@H](CO)NC(=O)[C@H](Cc2ccc(O)cc2)NC(=O)[C@H](CC(=O)O)NC(=O)[C@H](CO)NC(=O)[C@@H](NC(=O)[C@H](Cc2ccccc2)NC(=O)[C@@H](NC(=O)CNC(=O)[C@H](CCC(N)=O)NC(=O)C(C)(C)NC(=O)[C@@H](N)Cc2c[nH]cn2)[C@@H](C)O)[C@@H](C)O)C(=O)N[C@@H](CCC(N)=O)C(=O)N[C@@H](C)C(=O)N[C@@H](C)C(=O)N1)C(=O)N[C@@H](CS)C(=O)N[C@@H](Cc1c[nH]c2ccccc12)C(=O)N[C@@H](CC(C)C)C(=O)N[C@@H](CCSC)C(=O)N[C@@H](CC(N)=O)C(=O)NCC(=O)NCC(=O)N1CCC[C@H]1C(=O)N[C@@H](CO)C(=O)N[C@@H](CO)C(=O)NCC(=O)N[C@@H](C)C(=O)N1CCC[C@H]1C(=O)N1CCC[C@H]1C(=O)N1CCC[C@H]1C(=O)N[C@@H](CO)C(N)=O) [Chimera AIB2, Gly29,30 Cys24 Cex Lactam (SEQ ID NO: 491), parent w/o PEG] | 25.2% | 382% |  |  |  | 
13 | [DMIA]SQGTFTSDK(Myristoyl)SKYLDERRAKDFVQWLMNT-NH2 (reading uncertain) [DMIA1, K10(C14), [E16/K20]-Gluc Amide] |  |  | 204% |  | 30% | 0.05 nM
14 | [Isobutyryl(2-imidazol-4-yl)]SQGTFTSDYSKYLDERRAKDFVC(PEG)WLMNGGPSSGAPPPS-NH2 (lactam 16-20; reading uncertain; also: PEG size not given here) [E16, K20 DMIA1, Gly29,30 Cys24 Cex Lactam (SEQ ID NO: 513), parent w/PEG] | 12.6% | 11.3% |  |  |  | 
15 | HSQGTFTSDYSKYLDEQAAKEFIC(PEG)WLMNT-NH2 (reading uncertain) [Chimera Cys24 (SEQ ID NO: 518), parent w/PEG] | 19.8% | 29.3% |  |  |  | 
16 | [Isobutyryl(2-imidazol-4-yl)]SQGTFTSDYSKYLDEQAAKEFIC(PEG)WLMNT-NH2 (lactam 16-20; reading uncertain) [Chimera DMIA1, Cys24 Lactam (SEQ ID NO: 505), parent w/PEG] | 19.1% | 12.5% |  |  |  | 
17 | XSQGTFTSDKSKYLDERRAKDFVQWLMNT (DMIA at 1; Lys 10-C18 acyl; [E16/K20]; C-terminal amide) [DMIA1, K10(C18), [E16/K20]-Gluc Amide] |  |  | 42.3% |  | 136% | 0.011 nM
18 | H[Aib]QGTFTSDYSKYLDERAAKDFVC(PEG)WLMNGGPSSGAPPPS-NH2 (not fully specified; reading uncertain) [E16, K20AIB2, A18 Gly29,30 Cys24 Cex (SEQ ID NO: 496), parent w/PEG] | 0.1% | 88.5% |  |  |  | 
19 | [Isobutyryl(2-imidazol-4-yl)]SQGTFTSDYSKYLDEQAAKEFICWLMNT-NH2 (SMILES CC[C@H](C)[C@H](NC(=O)[C@H](Cc1ccccc1)NC(=O)[C@H](CCC(=O)O)NC(=O)[C@H](CCCCN)NC(=O)[C@H](C)NC(=O)[C@H](C)NC(=O)[C@H](CCC(N)=O)NC(=O)[C@H](CCC(=O)O)NC(=O)[C@H](CC(=O)O)NC(=O)[C@H](CC(C)C)NC(=O)[C@H](Cc1ccc(O)cc1)NC(=O)[C@H](CCCCN)NC(=O)[C@H](CO)NC(=O)[C@H](Cc1ccc(O)cc1)NC(=O)[C@H](CC(=O)O)NC(=O)[C@H](CO)NC(=O)[C@@H](NC(=O)[C@H](Cc1ccccc1)NC(=O)[C@@H](NC(=O)CNC(=O)[C@H](CCC(N)=O)NC(=O)[C@H](CO)NC(=O)C(C)(C)c1c[nH]cn1)[C@@H](C)O)[C@@H](C)O)C(=O)N[C@@H](CS)C(=O)N[C@@H](Cc1c[nH]c2ccccc12)C(=O)N[C@@H](CC(C)C)C(=O)N[C@@H](CCSC)C(=O)N[C@@H](CC(N)=O)C(=O)N[C@H](C(N)=O)[C@@H](C)O) [Chimera DMIA1, Cys24 (SEQ ID NO: 519), parent w/o PEG] | 28.9% | 64.5% |  |  |  | 
